Experiment [1] has as its target RBD-Fc (SARS-CoV-2 S protein amino acids 319-541 with human IgG1 Fc) (SARS-CoV-2; human) (UniProt P0DTC2).
The target of experiment [2] is SARS-CoV-2 S protein (wildtype) (SARS-CoV-2) (UniProt P0DTC2). The experiment in a line: cell-based or functional assay.

Our source for the EC50 (read off the curve) and IC50, authentic SARS-CoV-2 neutralization on Vero-E6 cells (viral RNA by RT-PCR) values is US20240158477A1.

One may read the EC50 (read off the curve) as the midpoint of the concentration-response curve. As for Fc tagged VHH72 (Fc fusion), the EC50 (read off the curve) in experiment [1] amounted to 0.2 nM. For the same substance, the IC50, authentic SARS-CoV-2 neutralization on Vero-E6 cells (viral RNA by RT-PCR) in experiment [2] was determined as 13.8 nM.
